# In patent US20090252681A1 (Ablynx, published 2009):
# Legend:
# purified EGFR (Sigma) = biological target: T1, purified EGFR (Sigma) (human, UniProt P00533 25-1210, limits assumed)
# T1 construct: native receptor purified from A431 cells; also called solid phase coated EGFR
# [1] = biological target: T2, EGFR on A431 derived membrane vesicles (human, UniProt P00533 25-1210)
# T2 construct: whole, on cells; presented in membrane vesicles coated on ELISA plates, not on intact cells; also called EGFR harboring A431 vesicles; EGFR expressing A431 vesicles
# Recombinant human IGF-IR = biological target: T3, Recombinant human IGF-IR (human, UniProt P08069 31-932); test: SPR (BIAcore), immobilized IGF-IR
# T3 construct: bought; also called rhIGFIR; rhIGF-IR
# [2] = biological target: T4, cell surface expressed EGFR (human, UniProt P00533 25-1210)
# T4 construct: whole, on cells; also called EGFR on A431 tumor cells; EGFR on HER14 cells
koff (purified EGFR (Sigma)),Binder,further results
0.0031 s⁻¹,27-1-H7 (VHH) VHH: EVQLVESGGGLVQAGGSLRLSCAASGRGAWAWFRQAPGKEREFVGGLSWSADSTYYADSVKGRFTISRDNAKNTVFLQMTNLKADDTAVYYCAAHRRPFASVFTTTRMYDYWGPGTQVTVSS,–
–,"PMP8C7 (VHH, also called EGR PMP8C7) VHH: QVKLEESGGGLVQAGGSLRLSCAASGRAFSSYVMGWFRQAPGKEREIVGAISWRGGSTYYADSVKGRFTISRDNAKNTVYLQMNSLKPEDTAVYYCAAVYRVGAISEYSGTDYYTDEYDYWGQGTQVTVSS",binding result [1]: binds
0.0015 s⁻¹,PMP7E12 (VHH) VHH: EVQLVESGGGLVQAGGSLRLSCTASGRTFENNAMAWFRQAAGKEREFVAGFSGSGGATYYAHSVEGRFTISRDNAKNTVDLQMNSLSLEDTAVYLCAARRKSGEVVFTIPARYDYWGQGTQVTVSS,–
–,"PMP1C7 (VHH, anti-IGF-IR Nanobody; tag not described; also called IGR PMP1C7) VHH: QVKLEESGGGLVQAGGSLRLSCVASGRTFSRTAMAWFRQAPGKEREFVATITWNSGTTRYADSVKGRFFISKDSAKNTIYLEMNSLEPEDTAVYYCAATAAAVITPTRGYYNYWGQGTQVTVSS",koff (Recombinant human IGF-IR): 0.0019 s⁻¹
–,PMP9C1 (VHH) VHH: EVQLVESGGGLVQAGGSLRLSCAASGRTFSGFAMGWFRQAPGKEREFVAAISWSGGSLLYVDSVKGRFTISRDNAKNTVHLQMNSLKPGDTAVYYCAAMVGPPPRSLDYGLGNHYEYDYWGQGTQVTVSS,binding result [2]: binds; binding result [1]: binds
0.0015 s⁻¹,PMP7A5 (VHH) VHH: EVQLVESGGGLVQAGGSLRLSCAASDRTFSSNNMGWFRQAPGKEREFVAAIGWGGLETHYSDSVKGRFTISRDNAKNTVYLQMNSLKPEDTARYYCAVSSTRTVIYTLPRMYNYWGQGTQVTVSS,–
0.00017 s⁻¹,"PMP38G7 (VHH, also called EGR PMP38G7) VHH: EVQLVESGGGLVQAGGSLRLSCAASGRTFSSYVMGWFRQATGKEREFVATIAWDSGSTYYADSVKGRFTISRDNAKNTVHLQMNSLKPEDTAVYYCAASYNVYYNNYYYPISRDEYDYWGQGTQVTVSS",–
0.0017 s⁻¹,"27-10-E8 (VHH, anti-EGFR Nanobody; tested as periplasmic extract or IMAC purified soluble Nanobody, tag not described; also called EGR 27-10-E8) VHH: EVQLVESGGGLVQAGGSLRLSCAASGRTFSTYTMAWFRQAPGKEREFVQGISRSDGGTYDADSVKGRFTISRDNAKNTVYLQMNSLKPEDTAVYFCAAASVKLVYVNPNRYSYWGQGTQVTVSS",IC50 (read off the curve) [1]: ~0.9 nM
